Assay results reported in US20180369403A1 (University of Texas, published 2018).
“And” between values parts separate entries of the source, which are not always exact repeats. Identical values can stand only once.

B1: anti-LGR4 monoclonal antibody 3G6 (antibody, V domains shown)
VH: QVQLQQSGAELVKPGSSVKISCKASGYTFTSNFMHWIKQQPGNGLEWIGWIYPGDGDTDYNQKFIGKATLTADKSSSTAYMQLSSLTSEDSAVYFCSRSNSGYNWFAYWGQGTLVTVSS
VL: DIVLTQSPPVLSASVGDRVTLSCKASQNINKNLDWYQQKHGEAPKLLIYYTNNLQTGIPSRFSGSGSGTDYTLTIRSLQPEDVATYYCYQYRTGWTFGGGTKLELKR
notes: Rat monoclonal antibody; also called clone 3G6
B2: 8D2-MC-VC-PAB-MMAE (antibody, V domains shown)
VH: QVQLQQSGAELVKPGASVNLSCKTSGYTFSTSYMSWFKQIPGQTIEWVGLIYVGAGGPTYNQKFKGKASLTVDTSSSTAYMDLSSLTAEDSAVYFCARVRGYAMDAWGQGTSVTVSS
VL: DIVLTQSPATLSVTPGESVSLSCRASQDISTSIHWYQQKSNESPRLLIKYASQSISGIPSRFSGGGSGTDFTLTINRVESEDFSVYYCQQSYSLPVTFGSGTKLELKR
modifications: MMAE (auristatin) attached through an MC-VC-PAB (maleimidocaproyl-valine-citrulline-p-aminobenzyloxycarbonyl) linker; sites and chain of attachment not stated
B3: anti-LGR4 monoclonal antibody 8D2 (antibody, V domains shown)
VH: QVQLQQSGAELVKPGASVNLSCKTSGYTFSTSYMSWFKQIPGQTIEWVGLIYVGAGGPTYNQKFKGKASLTVDTSSSTAYMDLSSLTAEDSAVYFCARVRGYAMDAWGQGTSVTVSS
VL: DIVLTQSPATLSVTPGESVSLSCRASQDISTSIHWYQQKSNESPRLLIKYASQSISGIPSRFSGGGSGTDFTLTINRVESEDFSVYYCQQSYSLPVTFGSGTKLELKR
notes: also called mAb 8D2; LGR4-mAb-8D2

Legend:
[1] = target: T1, human LGR4 (leucine-rich repeat-containing G-protein coupled receptor 4) (human, UniProt Q9BXB1 25-951); experiment: fluorescence cell binding, HEK293 cells overexpressing LGR4, Alexa-488 anti-rat IgG
T1 construct: whole, on cells; also called GPR48; HEK293-LGR4-human

[2] = target: T1, human LGR4 (leucine-rich …); experiment: cell-based or functional assay
LGR6 = target: T2, LGR6 (UniProt Q9HBX8 25-567, limits assumed); experiment: specificity cross check analysis
T2 sequence (looked up): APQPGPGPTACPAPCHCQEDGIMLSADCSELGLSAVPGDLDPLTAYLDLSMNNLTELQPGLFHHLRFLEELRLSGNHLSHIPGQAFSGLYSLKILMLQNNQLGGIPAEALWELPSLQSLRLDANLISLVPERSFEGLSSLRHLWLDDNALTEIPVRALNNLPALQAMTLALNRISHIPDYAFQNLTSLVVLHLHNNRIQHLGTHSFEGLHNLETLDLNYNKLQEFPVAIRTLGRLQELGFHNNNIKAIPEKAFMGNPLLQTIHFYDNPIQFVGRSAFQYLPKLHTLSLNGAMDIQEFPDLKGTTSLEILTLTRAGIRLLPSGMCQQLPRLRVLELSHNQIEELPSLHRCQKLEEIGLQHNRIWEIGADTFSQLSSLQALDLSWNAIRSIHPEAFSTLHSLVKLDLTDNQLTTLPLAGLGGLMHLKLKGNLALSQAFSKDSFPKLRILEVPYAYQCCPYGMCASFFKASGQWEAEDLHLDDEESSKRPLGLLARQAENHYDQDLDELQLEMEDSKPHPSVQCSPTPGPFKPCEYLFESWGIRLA

LGR5 = target: T3, LGR5 (UniProt O75473 22-561, limits assumed); experiment: specificity cross check analysis
T3 sequence (looked up): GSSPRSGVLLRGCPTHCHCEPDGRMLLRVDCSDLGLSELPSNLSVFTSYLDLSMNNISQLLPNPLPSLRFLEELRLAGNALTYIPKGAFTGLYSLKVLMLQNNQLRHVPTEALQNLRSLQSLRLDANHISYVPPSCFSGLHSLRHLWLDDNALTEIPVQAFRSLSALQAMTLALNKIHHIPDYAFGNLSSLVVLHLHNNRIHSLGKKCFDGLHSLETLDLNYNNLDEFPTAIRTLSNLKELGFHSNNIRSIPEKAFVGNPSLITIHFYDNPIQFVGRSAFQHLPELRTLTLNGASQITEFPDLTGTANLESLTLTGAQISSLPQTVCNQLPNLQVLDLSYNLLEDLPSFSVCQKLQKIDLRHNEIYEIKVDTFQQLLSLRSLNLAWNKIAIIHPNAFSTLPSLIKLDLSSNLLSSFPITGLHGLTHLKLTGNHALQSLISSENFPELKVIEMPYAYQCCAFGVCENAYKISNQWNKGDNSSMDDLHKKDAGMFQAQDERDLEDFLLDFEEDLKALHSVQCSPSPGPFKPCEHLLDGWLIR

mouse LGR4 = target: T4, mouse LGR4 (mouse, UniProt A2ARI4 25-951); experiment: Western blot, lane HEK293-LGR4-mouse
T4 construct: whole, on cells; also called native mouse receptor; HEK293-LGR4-mouse

[3] = target: T1, human LGR4 (leucine-rich …); experiment: binding to live HEK293 cells stably expressing human LGR4

Binder	Kd [1] [µg/mL]	IC50, cell viability of IGROV1 cells (CelltiterGlo, 4 days) [2] [µg/mL]	IC50, cell viability of OVCAR3 cells (CelltiterGlo, 4 days) [2] [µg/mL]	IC50, cell viability of SKOV3 cells (CelltiterGlo, 4 days) [2] [µg/mL]	binding result (LGR6)	binding result (LGR5)	binding result (mouse LGR4)	Kd [3]
B1	0.1	–	–	–	–	–	–	–
B2	–	~0.3	~0.03	2.4	–	–	–	–
B3	0.5	–	–	–	no binding	no binding	binds	~0.1 µg/mL and ~0.7 nM
